US11433139B2, “Peptide vaccines against interleukin-31” (Zoetis Services LLC, priority 2018, dated 2022)

Tests used:
feline IL-31 = assay: Affinity of anti-IL-31 antibodies by surface plasmon resonance (Biacore), feline IL-31 surface; type: binding; settings: IL-31 conjugated to the surface (FIG. 2)
Summary of the method: (§1)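 IL-31 amine-coupled (NHS/EDC) at 5 μg/mL directly onto the SPR chip, quenched with ethanolamine; candidate mAbs flowed over as analyte. KD from 1:1 model fits; values below 1×10^−11 M are under the instrument's lower quantitation limit.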

canine IL-31 [1] = assay: Affinity of anti-IL-31 antibodies by surface plasmon resonance (Biacore), canine IL-31 surface; type: binding; settings: IL-31 conjugated to the surface (FIG. 2)
Summary of the method: as §1

[2] = system: feline IL-31 15H05 mutant; assay: Indirect ELISA, binding to feline IL-31 15H05 mutant; settings: compared with wildtype
Summary of the method: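 Wildtype or 15H05-epitope-mutant feline IL-31 coated directly onto plates as capture antigen (50 ng/well). Antibodies diluted in PBST, bound antibody detected with HRP-labelled secondary and TMB for 10 min at RT. Reaction stopped with 0.1 N HCl, then OD read at 450 nm.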

wildtype feline IL-31 = assay: Biacore binding, single test concentration of antibody, feline IL-31 surface
Method: (§2) For the indirect ELISA, binding (ELISA OD) to wildtype feline IL-31 and a feline IL-31 15H05 mutant which had mutations in the monoclonal antibody 15H05 epitope region was assessed. To confirm binding, biacore analysis was performed using canine, feline, equine, human, the feline 15H05 mutant, and feline 11E12 mutant IL-31 proteins as surfaces and a single test concentration of antibody. The feline IL-31 11E12 mutant had mutations in the monoclonal antibody 11E12 epitope region.
For the indirect ELISA method, antibody binding to wildtype and feline IL-31 15H05 mutant proteins was assessed. […] In comparison, the 11E12 antibody bound to the wild-type feline IL-31 and its binding was not impacted by the mutations in the 15H05 epitope region as evidenced by the data in FIG. 4. To confirm binding, biacore analysis was performed using canine, feline, equine, human, feline 15H05 mutant, and feline 11E12 mutant IL-31 proteins as surfaces and a single test concentration of antibody. Similar to ELISA observations, all antibodies tested bound to wildtype feline IL-31. In agreement with the data described above in this section, mouse antibodies 11 E12 and 15H05 both bound to canine and feline IL-31 surfaces. […] From this group of nine fully canine antibodies, only ZIL1 and ZIL9 cross-reacted with equine IL-31. […]

canine IL-31 [3] = assay: Biacore binding, single test concentration of antibody, canine IL-31 surface
Method: as §2
For the indirect ELISA method, antibody binding to wildtype and feline IL-31 15H05 mutant proteins was assessed. […] In comparison, the 11E12 antibody bound to the wild-type feline IL-31 and its binding was not impacted by the mutations in the 15H05 epitope region as evidenced by the data in FIG. 4. To confirm binding, biacore analysis was performed using canine, feline, equine, human, feline 15H05 mutant, and feline 11E12 mutant IL-31 proteins as surfaces and a single test concentration of antibody. Similar to ELISA observations, all antibodies tested bound to wildtype feline IL-31. In agreement with the data described above in this section, mouse antibodies 11 E12 and 15H05 both bound to canine and feline IL-31 surfaces. […] From this group of nine fully canine antibodies, only ZIL1 and ZIL9 cross-reacted with equine IL-31. Of note, antibody 15H05 was the only one of all assayed herein that bound to canine, feline, and equine IL-31 indicating some level of epitope conservation across the three species. In contrast, none of the antibodies described herein bound to human IL-31. Additional biacore surfaces were used to verify ELISA observations showing differential binding of antibodies to wildtype feline IL-31 and two proteins with mutations in the 15H05 (15H05 mutant) or 11 E12 (11E12 mutant) epitopes. […] Differing results can be attributed to differences in the two assay methodologies.

Chain of canine IL-31 (as listed by the source): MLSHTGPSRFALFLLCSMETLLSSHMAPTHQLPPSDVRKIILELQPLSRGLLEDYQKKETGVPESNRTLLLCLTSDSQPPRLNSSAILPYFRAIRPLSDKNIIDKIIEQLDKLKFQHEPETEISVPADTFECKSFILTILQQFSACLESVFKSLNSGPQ
Chain of feline IL-31 (as listed by the source): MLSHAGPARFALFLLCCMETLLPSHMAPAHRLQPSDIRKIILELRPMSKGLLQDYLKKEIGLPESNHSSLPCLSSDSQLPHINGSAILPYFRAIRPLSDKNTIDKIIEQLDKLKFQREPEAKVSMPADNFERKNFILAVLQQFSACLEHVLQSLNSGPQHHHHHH
Chain of feline IL-31 15H05 mutant (as listed by the source, change not shown): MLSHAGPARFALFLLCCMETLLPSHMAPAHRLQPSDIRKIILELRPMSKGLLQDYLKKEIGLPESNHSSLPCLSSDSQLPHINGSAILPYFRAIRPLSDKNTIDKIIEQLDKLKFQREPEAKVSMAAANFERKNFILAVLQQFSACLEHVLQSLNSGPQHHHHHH
Chain of wildtype feline IL-31 (as listed by the source): as the sequence (as listed by the source, change not shown) above, with A126P, A128D counted along it

B1: 15H05: mouse anti IL-31 monoclonal antibody, VH SEQ ID NO: 67, VL SEQ ID NO: 69 (antibody, listed as Mus musculus, V domains shown)
VH: QVQLQQSAAELARPGASVKMSCKTSGYTFTSYTIHWIKQRPGQGLEWIGNINPTSGYTENNQRFKDKTTLTVDRSSNTAYLQLHSLTSEDSAVYFCARWGFKYDGEWSFDVWGAGTTVTVSS
VL: DIQMNQSPSSLSASLGDTITVTCRASQGISIWLSWYQQKPGNIPKVLINKASNLHIGVPPRFSGSGSGTHFTLTITSLQPEDIATYYCLQSQTYPLTFGGGTKLEIN
B1 was tested, and the “affinity (KD) to feline IL-31” value (feline IL-31; listed as Mu-15H05) was “sub-nanomolar”, the “affinity (KD) to feline IL-31” value (feline IL-31; listed as mAb 15H05) was “high” and the “affinity (KD) to canine IL-31” value (canine IL-31 [1]; listed as Mu-15H05) was “sub-nanomolar”. The “affinity (KD) to canine IL-31” value (canine IL-31 [1]; listed as mAb 15H05) was “high”, the “binding to feline IL-31 15H05 mutant (ELISA)” value [2] was “complete loss” and the “binding to wildtype feline IL-31 (Biacore)” value (wildtype feline IL-31) was “bound”. For the same molecule, the “binding to canine IL-31 (Biacore)” value (canine IL-31 [3]) was “bound”.
